Assay results as given in patent US11365219B2, “Cyclic peptides as protein targeting agents” (California Institute of Technology, priority 2013, dated 2022).
Numbered stars: 1 amine (or outer) side, 2 acyl side, 3 side chain; on linkers, the order of the positions; unused ones are H or OH. Bridge positions count the residues as written; N and C are the ends. Square brackets hold non-standard residues; d marks the D form. Ends that are not written are not given here. Peptide text beside a SMILES is read from it. * marks the point of attachment. Biotin = O=C1N[C@H]2[C@H](CS[C@H]2CCCCC(=O)*)N1; X1 = O=C(CCCOCCOCCOCCOCCOCCN[*:1])[*:2]; Ethylenediamine = C(CN[*:2])N[*:1]; R8 = C=CCCCCCC[C@@](C)(N)C(=O)O; S5 = C=CCCC[C@](C)(N)C(=O)O; Pra = C#CC[C@H](N)C(=O)O

Legend:
PfHRP2 protein = PfHRP2 protein (Plasmodium falciparum, UniProt P05227); assay: biochemical
Method: For the selectivity assay, the effect of binding of the ligand to the PfHRP2 protein with varying serum concentrations was determined.

full-length Akt2 protein = target: T1, full-length Akt2 protein (Homo sapiens, UniProt P31751); assay: affinity estimation from immunoassays capturing full-length Akt2 protein (FIG. 6D); assay type: binding; conditions: cyclic vs linear peptide
T1 construct: compared against the corresponding linear peptide for capturing full-length Akt2 protein
Text: (§1) The structure of an isolated hit, with sequence of variable region YYTYT (SEQ ID NO:4) is illustrated in FIG. 6A. […] FIG. 6D is an affinity estimation from immunoassays in which the Cy(YYTYT (SEQ ID NO:4)-Tz4) peptide is compared against the corresponding linear peptide for capturing full-length Akt2 protein. […] Finally, FIG. 6E presents selectivity assay data showing the relative binding of the cyclic peptide to the Akt2 protein, relative to the closely related Akt1 and Akt3 proteins. The sequence of the C-terminal regions for all three proteins is given.

Akt2 = Akt2 (Homo sapiens, UniProt P31751); assay: single point immunoassay, cyclic versus linear peptide (FIG. 6C); assay type: binding
Text: The peptide libraries of Example 2 were screened against the C-terminal epitope of Akt2 that contains residues 450-481 as illustrated in FIG. 5. Those residues include the phosphorylation site […] which, for the screen exemplified in this example, was phosphorylated. The peptide libraries were first screened against synthetic peptide that represented a scrambled epitope of Akt2 450-481 to eliminate those library elements that bind to closely related epitopes. The remaining library elements were screened against a synthetically prepared polypeptide fragment representing the phosphorylated Akt2 C-terminus. The libraries A, B, C (from example 2) were all screened. Library C yielded hits, and the sequence of those hits (determined by Edman degradation) is shown in Table 3 (Tz4 indicates 4-carbon linker to triazole).
as §1

PvLDH [1] = assay: ELISA, biotinylated ligand on streptavidin plate, GST-PvLDH, antiGST-HRP detection; assay type: binding; conditions: whole protein; 5 μM biotinylated ligand immobilized; FIG. 10
Method: (§2) Hit sequence No. 6 (HWSAN (SEQ ID NO:11)) was identified for further testing against the whole PfLDH or PvLDH proteins, results of which are presented in FIG. 10. […] A RCM cyclized version of the HWSAN (SEQ ID NO:11) peptide was synthesized. 5 μM of the biotinylated ligands were immobilized on a streptavidin plate, blocked with 5% milk and then treated with GST-PfLDH or GST-PvLDH proteins overnight. The binding was detected using antiGST-HRP antibody.

PfLDH [2] = target: T2, PfLDH (Plasmodium falciparum, UniProt Q27743, A73S/D96L); assay: ELISA, biotinylated ligand on streptavidin plate, GST-PfLDH, antiGST-HRP detection; assay type: binding; conditions: 5 μM biotinylated ligand immobilized
Method: as §2
To look at the selectivity of the ligand, a single point ELISA was done with the biotinylated ligand immobilized on the streptavidin plate and treating with 10 nM PfLDH or PvLDH protein in varying concentrations of human serum.

PfLDH [3] = target: T2, PfLDH; assay: sandwich ELISA, NeutrAvidin-coated plates loaded with biotinylated ligand, pfLDH; assay type: binding; conditions: varying concentrations of pLDH in TBS
Method: (§3) The structure of the resulting binary ligand hevwh-YLGHK based on the hit sequence No. 1 and representative data is presented in FIG. 11. […] Similar ELISA was performed with pLDHs and human LDH (hLDH) in the presence of 1 and 5% (v/v) human serum to confirm the selectivity and high activity of the binary ligand in complex mixtures.

PvLDH [4] = assay: sandwich ELISA, NeutrAvidin-coated plates loaded with biotinylated ligand, pvLDH; assay type: binding; conditions: varying concentrations of pLDH in TBS
Method: as §3

Chain of Akt2 (P31751 whole entry, the tested form may be a part): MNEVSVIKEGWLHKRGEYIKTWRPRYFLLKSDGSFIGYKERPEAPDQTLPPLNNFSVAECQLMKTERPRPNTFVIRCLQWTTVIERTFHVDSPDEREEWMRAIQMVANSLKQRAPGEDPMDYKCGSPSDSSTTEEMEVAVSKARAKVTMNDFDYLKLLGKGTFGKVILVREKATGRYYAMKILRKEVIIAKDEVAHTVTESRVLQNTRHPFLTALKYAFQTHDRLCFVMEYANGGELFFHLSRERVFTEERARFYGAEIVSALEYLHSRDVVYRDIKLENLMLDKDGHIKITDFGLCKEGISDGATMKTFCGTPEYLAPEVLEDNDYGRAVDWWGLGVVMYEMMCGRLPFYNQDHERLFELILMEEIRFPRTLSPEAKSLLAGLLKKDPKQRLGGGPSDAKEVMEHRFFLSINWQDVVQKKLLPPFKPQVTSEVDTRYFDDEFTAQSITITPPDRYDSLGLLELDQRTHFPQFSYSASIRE
T1 sequence (P31751 whole entry): as the sequence (P31751 whole entry, the tested form may be a part) above

## CC(C)C[C@@H]1NC(=O)[C@H](Cc2c[nH]c3ccccc23)NC(=O)[C@H](CCC(=O)O)NC(=O)[C@H]([C@@H](C)O)NC(=O)[C@H](CO)NC(=O)CNC(=O)[C@](C)(N)CCCCCC/C=C\CCC[C@@](C)(C(=O)NCCOCCOCCOCCOCCOCCCC(=O)NCCNC(=O)CCCC[C@@H]2SC[C@@H]3NC(=O)N[C@@H]32)NC1=O [biotinylated peptide] (H-[R8]GSTEWL[S5][X1]-{Ethylenediamine-Biotin}; staple (Z) 1-8)
PfHRP2 protein
  EC50: 20 nM

## Cy(YYTYT (SEQ ID NO:4)-Tz4) (triazole (positions not given here); also: Tz4: 4-carbon linker to triazole)
full-length Akt2 protein
  affinity relative to the corresponding linear peptide: 30 fold
Akt2
  binding relative to the linear variant: improved binding

## HWSAN ([Pra]HWSAN; triazole (positions not given here); also: triazole cyclisation, partner residue not given here) [HWSAN (SEQ ID NO:11)]
PvLDH [1]
  affinity for pvLDH: high affinity
PfLDH [2]; GST-PfLDH or GST-PvLDH overnight
  selectivity between the PfLDH and PvLDH, triazole-cyclized versus RCM cyclic peptide: higher selectivity
PfLDH [2]; whole protein, FIG. 10
  affinity for pfLDH: high affinity

## RCM cyclic peptide: RCM cyclized version of the HWSAN peptide, biotinylated ligand (staple (positions not given here); also: RCM cyclized, olefinic residues not placed, biotinylated, site not given here)
PfLDH [2]; GST-PfLDH overnight
  affinity for PfLDH, RCM cyclic versus triazole-cyclized peptide: higher affinity

## hevwh-YLGHK
PfLDH [3]
  affinity for pfLDH: high affinity
PvLDH [4]
  affinity for pvLDH: high affinity
